Experimental data published in article PMC12460018.

What was measured:
[1] = target: plasma-derived von Willebrand factor, highly purified in-house control preparation (human) (UniProt P04275); test: ELISA + SPR; VWF:FVIIIB, measured by an ELISA combined with a chromogenic assay (ECA) and by Biacore; the table does not say which gave the percent
[2] = target: recombinant von Willebrand factor, furin-matured (human) (UniProt P04275); test: as above

- VWF:FVIII binding capacity (%) [1]: 109%
- VWF:FVIII binding capacity (%) [2]: 108%
Substance: factor VIII, P00451 20-2351
